Source: article PMC10862077 (Frontiers in Immunology, 2024)

B1: A7L (VHH)
VHH: QVQLQQSGGGLVQAGDSLRLSCAASGRAFNYYTMGWFRQAPGKEREFVAKIYWDGGSTIYADSVKGRFTISIDNAKNTVYLQMNSLKPEDTAVYYCAADPSFYPFRPKYWGQGTQVTVSS
notes: also called sdAb A7
B2: A6L (VHH)
VHH: QVQLQESGGRLVQAEDSLRLSCAASGRTFVSYDMGWFRQAPGKEREFVAAINWRGYTTDYVDSVKGRFFISRDIAKSTVYLQMNNLKPEDTAVYYCAARQMSGSSRYSPPGRVGYDFWGQGTQVTVSS
notes: also called sdAb A6
B3: A12L (VHH)
VHH: QVQLQESGGGLVQAGGSLRLSCAASGRTFSYYPMAWFRQAPGQEREFVAAIIGADTTYYADSLKGRFTISRDNAKNMVYLQMNSLKPEDTAVYYCAARNTYWSDVYYREGQYTNWGQGTQVTVSS
notes: also called sdAb A12
B4: A2L (VHH)
VHH: QVQLQQSGGGLVQAGGSLRLSCAASGRFFSRQVMGWFRQAPGKDREFVGVISWDNGVTFYSDSVKGRFTMSREIAKKTVHLQMNSLKPEDTAVYYCAAGNALHSRYYSPSKYDYWGPGTQVTVSS
notes: also called sdAb A2
B5: A16L (VHH)
VHH: QVQLQESGGGVVQAGGSLRLSCAASGRTVSSSAMGWFRLAPGKEREFVVGISRSGGSIFYADSVKGRFTISRKNAKNTVDLQMNSLKPEDTAVYYCAAGYRPGYGDYGRVFYREDEYDDWGQGTQVTVSS
notes: also called sdAb A16

Experiments:
Conditions in all cases: both partners purified
human albumin = biological target: T1, human albumin (Homo sapiens, UniProt P02768); test: ELISA; […], pH 7.4); room temperature; […]
T1 construct: also called HSA

sheep albumin = sheep albumin (Ovis aries, UniProt P14639); test: ELISA; […], pH 7.4); room temperature; […]
horse albumin [1] = biological target: T2, horse albumin (Equus caballus, UniProt P35747); test: ELISA; […], pH 7.4); room temperature; […]
bovine albumin = bovine albumin (Bos taurus, UniProt P02769); test: ELISA; […], pH 7.4); room temperature; […]
[2] = biological target: T3, natural protein of Sus scrofa P08835 (Sus scrofa, UniProt P08835); test: ELISA; […], pH 7.4); room temperature; […]
T3 construct: also called Sw

chicken ovalbumin = chicken ovalbumin (Gallus gallus, UniProt P01012); test: ELISA; […], pH 7.4); room temperature; […]
cat albumin [3] = biological target: T4, cat albumin (Felis catus, UniProt P49064); test: ELISA; […], pH 7.4); room temperature; […]
mouse albumin = mouse albumin (Mus musculus, UniProt P07724); test: ELISA; […], pH 7.4); room temperature; […]
horse albumin [4] = biological target: T2, horse albumin
cat albumin [5] = biological target: T4, cat albumin
[6] = biological target: T3, natural protein of Sus scrofa P08835

T3 sequence (P08835 25-607, one chain of several): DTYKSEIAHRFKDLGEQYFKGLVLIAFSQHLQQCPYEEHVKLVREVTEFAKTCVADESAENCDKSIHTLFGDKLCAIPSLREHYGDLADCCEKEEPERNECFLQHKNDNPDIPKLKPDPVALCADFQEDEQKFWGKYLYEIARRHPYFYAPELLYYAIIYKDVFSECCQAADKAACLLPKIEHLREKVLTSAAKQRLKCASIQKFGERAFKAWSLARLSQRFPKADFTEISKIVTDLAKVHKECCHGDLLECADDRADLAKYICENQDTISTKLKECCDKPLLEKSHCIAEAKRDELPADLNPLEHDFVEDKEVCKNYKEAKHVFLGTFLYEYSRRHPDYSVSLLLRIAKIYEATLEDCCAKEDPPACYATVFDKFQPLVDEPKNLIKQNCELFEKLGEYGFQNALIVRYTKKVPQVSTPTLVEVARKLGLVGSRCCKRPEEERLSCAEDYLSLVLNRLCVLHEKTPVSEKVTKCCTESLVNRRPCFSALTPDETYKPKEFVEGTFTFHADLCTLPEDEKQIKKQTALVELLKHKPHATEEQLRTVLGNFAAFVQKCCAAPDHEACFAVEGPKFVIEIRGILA
T4 sequence (P49064 25-608): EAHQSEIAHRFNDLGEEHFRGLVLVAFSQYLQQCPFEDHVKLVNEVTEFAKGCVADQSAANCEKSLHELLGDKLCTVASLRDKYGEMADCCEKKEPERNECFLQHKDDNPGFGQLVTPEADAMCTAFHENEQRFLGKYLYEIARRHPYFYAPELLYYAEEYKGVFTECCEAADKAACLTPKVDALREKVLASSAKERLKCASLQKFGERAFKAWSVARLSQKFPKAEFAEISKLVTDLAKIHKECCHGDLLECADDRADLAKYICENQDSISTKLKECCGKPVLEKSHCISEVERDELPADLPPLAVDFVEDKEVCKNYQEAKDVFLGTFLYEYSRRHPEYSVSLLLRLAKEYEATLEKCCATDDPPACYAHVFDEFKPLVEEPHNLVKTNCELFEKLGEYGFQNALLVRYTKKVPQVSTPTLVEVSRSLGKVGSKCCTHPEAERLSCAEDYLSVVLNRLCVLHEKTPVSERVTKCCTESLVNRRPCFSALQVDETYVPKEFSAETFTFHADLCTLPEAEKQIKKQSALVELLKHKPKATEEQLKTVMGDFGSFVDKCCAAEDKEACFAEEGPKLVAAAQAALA
T2 sequence (P35747 25-607): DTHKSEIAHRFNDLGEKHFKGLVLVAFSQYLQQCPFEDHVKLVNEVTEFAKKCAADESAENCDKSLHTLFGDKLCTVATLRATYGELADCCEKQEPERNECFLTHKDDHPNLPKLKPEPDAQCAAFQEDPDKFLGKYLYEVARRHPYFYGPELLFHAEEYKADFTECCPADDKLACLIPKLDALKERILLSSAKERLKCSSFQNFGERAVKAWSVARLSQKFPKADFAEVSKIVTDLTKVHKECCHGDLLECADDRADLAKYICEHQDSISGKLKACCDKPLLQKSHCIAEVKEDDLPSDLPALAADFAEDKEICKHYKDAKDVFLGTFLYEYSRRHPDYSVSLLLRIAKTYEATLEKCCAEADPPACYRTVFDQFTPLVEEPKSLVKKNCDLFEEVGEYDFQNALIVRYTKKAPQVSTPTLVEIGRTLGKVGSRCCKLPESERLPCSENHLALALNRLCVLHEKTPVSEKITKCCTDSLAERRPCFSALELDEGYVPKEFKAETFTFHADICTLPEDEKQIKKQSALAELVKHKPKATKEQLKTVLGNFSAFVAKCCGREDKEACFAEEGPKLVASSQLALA
sheep albumin, sequence (P14639 25-607): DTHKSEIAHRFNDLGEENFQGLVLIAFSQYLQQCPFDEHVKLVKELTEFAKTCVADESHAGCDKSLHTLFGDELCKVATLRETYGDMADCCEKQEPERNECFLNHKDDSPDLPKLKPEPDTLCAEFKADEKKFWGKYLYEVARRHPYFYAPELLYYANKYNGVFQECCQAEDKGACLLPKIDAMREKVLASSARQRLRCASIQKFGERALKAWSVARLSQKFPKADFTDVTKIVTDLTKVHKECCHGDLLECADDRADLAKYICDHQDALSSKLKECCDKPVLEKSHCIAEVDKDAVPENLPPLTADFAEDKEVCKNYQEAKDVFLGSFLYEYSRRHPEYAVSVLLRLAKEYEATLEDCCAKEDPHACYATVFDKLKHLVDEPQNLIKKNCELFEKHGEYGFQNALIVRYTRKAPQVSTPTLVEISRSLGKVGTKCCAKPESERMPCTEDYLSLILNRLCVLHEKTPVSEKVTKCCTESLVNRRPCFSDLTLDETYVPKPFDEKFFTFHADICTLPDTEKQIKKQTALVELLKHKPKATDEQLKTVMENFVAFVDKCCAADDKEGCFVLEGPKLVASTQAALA
T1 sequence (P02768 25-609): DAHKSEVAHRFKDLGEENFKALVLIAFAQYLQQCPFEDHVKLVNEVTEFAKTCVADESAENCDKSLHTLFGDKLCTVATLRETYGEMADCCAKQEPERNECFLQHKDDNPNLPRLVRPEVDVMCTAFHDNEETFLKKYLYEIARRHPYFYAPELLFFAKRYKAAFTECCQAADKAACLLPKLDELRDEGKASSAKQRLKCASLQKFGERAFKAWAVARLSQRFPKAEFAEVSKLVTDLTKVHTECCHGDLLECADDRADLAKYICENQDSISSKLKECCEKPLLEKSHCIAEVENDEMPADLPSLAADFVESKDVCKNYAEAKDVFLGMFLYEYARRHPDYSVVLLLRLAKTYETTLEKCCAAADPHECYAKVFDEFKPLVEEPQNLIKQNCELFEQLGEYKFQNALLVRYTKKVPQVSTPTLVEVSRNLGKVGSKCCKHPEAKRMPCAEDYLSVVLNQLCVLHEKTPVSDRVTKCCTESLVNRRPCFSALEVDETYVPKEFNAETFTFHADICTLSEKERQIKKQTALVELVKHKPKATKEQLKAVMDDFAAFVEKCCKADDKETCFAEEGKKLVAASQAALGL
chicken ovalbumin, sequence (P01012 whole entry): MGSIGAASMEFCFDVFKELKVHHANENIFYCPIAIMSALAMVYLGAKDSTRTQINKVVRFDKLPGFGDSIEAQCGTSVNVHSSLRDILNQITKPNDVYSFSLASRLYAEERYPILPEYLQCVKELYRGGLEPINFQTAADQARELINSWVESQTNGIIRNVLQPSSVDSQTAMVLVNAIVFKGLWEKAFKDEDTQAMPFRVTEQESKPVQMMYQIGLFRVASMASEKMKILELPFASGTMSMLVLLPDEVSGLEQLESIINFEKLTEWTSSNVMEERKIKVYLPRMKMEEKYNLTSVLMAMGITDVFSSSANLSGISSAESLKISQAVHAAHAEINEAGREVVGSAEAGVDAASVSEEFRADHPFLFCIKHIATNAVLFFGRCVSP
mouse albumin, sequence (P07724 25-608): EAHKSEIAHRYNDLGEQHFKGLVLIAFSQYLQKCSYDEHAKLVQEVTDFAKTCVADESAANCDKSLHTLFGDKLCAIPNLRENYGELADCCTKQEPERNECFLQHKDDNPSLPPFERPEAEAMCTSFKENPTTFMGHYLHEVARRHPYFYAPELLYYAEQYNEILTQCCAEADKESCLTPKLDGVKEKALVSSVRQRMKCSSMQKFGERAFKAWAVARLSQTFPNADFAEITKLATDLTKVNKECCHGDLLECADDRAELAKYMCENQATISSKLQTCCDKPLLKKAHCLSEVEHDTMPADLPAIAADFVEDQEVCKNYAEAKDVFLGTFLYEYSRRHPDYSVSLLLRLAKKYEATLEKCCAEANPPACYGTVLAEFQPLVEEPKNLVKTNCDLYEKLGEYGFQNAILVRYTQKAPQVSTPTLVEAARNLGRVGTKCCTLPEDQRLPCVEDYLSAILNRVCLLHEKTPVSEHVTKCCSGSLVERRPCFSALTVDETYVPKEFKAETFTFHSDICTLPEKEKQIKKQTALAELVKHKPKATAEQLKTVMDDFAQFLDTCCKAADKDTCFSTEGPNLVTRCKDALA
bovine albumin, sequence (P02769 25-607): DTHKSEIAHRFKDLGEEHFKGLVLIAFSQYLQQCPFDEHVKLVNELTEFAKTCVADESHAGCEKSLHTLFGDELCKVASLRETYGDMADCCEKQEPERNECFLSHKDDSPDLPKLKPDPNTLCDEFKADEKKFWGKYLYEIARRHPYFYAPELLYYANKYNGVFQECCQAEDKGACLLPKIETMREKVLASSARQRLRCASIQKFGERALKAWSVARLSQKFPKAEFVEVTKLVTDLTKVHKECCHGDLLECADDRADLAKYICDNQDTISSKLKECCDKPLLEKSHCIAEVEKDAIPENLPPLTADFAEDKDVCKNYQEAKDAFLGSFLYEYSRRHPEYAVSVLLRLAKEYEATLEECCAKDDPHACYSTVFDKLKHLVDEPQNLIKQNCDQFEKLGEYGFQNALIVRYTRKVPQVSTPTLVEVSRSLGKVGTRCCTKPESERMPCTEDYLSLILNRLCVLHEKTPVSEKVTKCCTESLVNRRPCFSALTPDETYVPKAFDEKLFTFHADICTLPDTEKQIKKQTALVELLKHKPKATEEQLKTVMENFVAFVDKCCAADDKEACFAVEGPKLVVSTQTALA

| Binder | binding result (horse albumin [1]) | Kd (horse albumin [4]) | koff (horse albumin [4]) | Kd (cat albumin [5]) | koff (cat albumin [5]) | further results |
| --- | --- | --- | --- | --- | --- | --- |
| B1 | binds |  |  |  |  | binding result (human albumin): no binding (tested: 1 µg/ml sdAb); binding result (sheep albumin): no binding (tested: 1 µg/ml sdAb); binding result (bovine albumin): no binding (tested: 1 µg/ml sdAb); binding result [2]: no binding (tested: 1 µg/ml sdAb); binding result (chicken ovalbumin): no binding (tested: 1 µg/ml sdAb); binding result (cat albumin [3]): no binding (tested: 1 µg/ml sdAb); binding result (mouse albumin): no binding (tested: 1 µg/ml sdAb) |
| B2 |  | 13 nM | 0.00966 s⁻¹ | 1.2 nM | 0.00087 s⁻¹ |  |
| B3 |  | 13 nM | 0.00115 s⁻¹ | 31 nM | 0.00082 s⁻¹ | Kd [6]: 189 nM; koff [6]: 0.0249 s⁻¹ |
| B4 | binds |  |  |  |  |  |
| B5 |  | 11 nM | 0.00242 s⁻¹ |  |  |  |
